From patent US5741689A, “Methods to inhibit serine kinase activity and to alter intersubunit binding activity of phosphatidylinositol 3-kinase, and serine kinase active sequence of the same” (Ludwig Institute for Cancer Research, priority 1994, dated 1998)

Assays:
[1] = target: T1, PI3-kinase p110 subunit alone (wild type, recombinant, expressed in Sf9 cells) (Bos taurus, UniProt P32871); experiment: in vitro PI3-kinase assay on anti-p110 immunoprecipitates, p110 alone; assay type: biochemical, bovine
T1 construct: made in house; host or cells: Sf9 insect cells (baculovirus)
T1 sequence (P32871 whole entry): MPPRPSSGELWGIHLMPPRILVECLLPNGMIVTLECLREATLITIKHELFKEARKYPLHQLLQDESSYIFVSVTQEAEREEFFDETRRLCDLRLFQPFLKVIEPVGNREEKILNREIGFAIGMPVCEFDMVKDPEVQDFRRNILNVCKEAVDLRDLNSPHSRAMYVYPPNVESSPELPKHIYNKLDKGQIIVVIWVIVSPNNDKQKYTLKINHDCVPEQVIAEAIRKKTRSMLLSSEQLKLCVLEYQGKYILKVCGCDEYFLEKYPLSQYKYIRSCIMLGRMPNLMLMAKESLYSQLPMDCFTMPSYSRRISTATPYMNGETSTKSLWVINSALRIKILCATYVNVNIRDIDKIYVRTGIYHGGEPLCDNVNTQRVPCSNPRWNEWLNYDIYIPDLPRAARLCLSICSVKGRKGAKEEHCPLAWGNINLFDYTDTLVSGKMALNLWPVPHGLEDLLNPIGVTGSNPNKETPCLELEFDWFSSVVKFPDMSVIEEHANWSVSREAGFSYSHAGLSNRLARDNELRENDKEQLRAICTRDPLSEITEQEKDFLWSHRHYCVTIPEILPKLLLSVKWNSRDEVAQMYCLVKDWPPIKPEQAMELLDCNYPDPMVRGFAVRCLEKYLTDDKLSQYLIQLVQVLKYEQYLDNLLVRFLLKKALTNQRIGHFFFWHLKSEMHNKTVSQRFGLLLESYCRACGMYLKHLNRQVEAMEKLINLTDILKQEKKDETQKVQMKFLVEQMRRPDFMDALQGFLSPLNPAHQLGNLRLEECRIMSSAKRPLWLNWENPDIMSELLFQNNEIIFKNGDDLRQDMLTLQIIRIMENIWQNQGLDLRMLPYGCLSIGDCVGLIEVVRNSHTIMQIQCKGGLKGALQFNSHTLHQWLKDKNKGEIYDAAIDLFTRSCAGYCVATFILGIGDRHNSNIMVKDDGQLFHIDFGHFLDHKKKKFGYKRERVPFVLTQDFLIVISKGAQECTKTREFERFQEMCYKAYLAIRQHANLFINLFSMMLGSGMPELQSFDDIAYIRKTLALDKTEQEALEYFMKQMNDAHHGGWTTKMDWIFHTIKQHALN
Procedure: (§1) Insect cells were infected with p85α/p110 complex, (see FIG. 17, A, lanes 1-6) or p110 alone, (see FIG. 17, B, lanes 7-12). The immunoprecipitates were washed twice with PI3-kinase buffer (20 mM Tris-HCl, pH 7.5, 100 mM NaCl, 0.5 mM EDTA). The samples were untreated or treated with 0.3 mM 5,5'-Dithio-bis [2-nitrobenzoic acid] (Nbs2) for 15 minutes at 22° C. Excess reagent was removed by washing the complexes three times with PI3-kinase buffer and the immunoprecipitate was then incubated for 15 minutes at 22° C. with increasing concentrations of dithiothreitol (DTT). A control sample was incubated with DTT alone at a final concentration of 300 mM. The remaining DTT was removed by washing with lysis buffer and the immunoprecipitates were subjected to PI3-kinase assays or to in vitro protein kinase assays described below.
(§2) The experiment was carried out and the experimental results set forth in FIG. 17, A. In vitro PI3-kinase assays were performed on anti-p110 immunoprecipitates of these cells that had been treated as follows: untreated (see FIG. 17, A, lane 1 and 7); 300 mM DTT (lanes 2 and 8); treated with 0.3 mM Nbs2 (lanes 3 and 9); immunoprecipitates pretreated with 0.3 mM Nbs2 incubated with 3 mM DTT (lanes 4 and 10), 30 mM DTT (lanes 5 and 11); 300 mM DTT (lanes 6 and 12).

[2] = target: T2, PI3-kinase p85α/p110 complex (wild type, recombinant, expressed in Sf9 cells) (Bos taurus, UniProt P32871); experiment: in vitro PI3-kinase assay on anti-p110 immunoprecipitates, p85α/p110 complex; assay type: biochemical, bovine
T2 construct: made in house; host or cells: Sf9 insect cells (baculovirus co-infection)
T2 sequence (P32871 whole entry): as above
T2 sequence (P23727 whole entry partner): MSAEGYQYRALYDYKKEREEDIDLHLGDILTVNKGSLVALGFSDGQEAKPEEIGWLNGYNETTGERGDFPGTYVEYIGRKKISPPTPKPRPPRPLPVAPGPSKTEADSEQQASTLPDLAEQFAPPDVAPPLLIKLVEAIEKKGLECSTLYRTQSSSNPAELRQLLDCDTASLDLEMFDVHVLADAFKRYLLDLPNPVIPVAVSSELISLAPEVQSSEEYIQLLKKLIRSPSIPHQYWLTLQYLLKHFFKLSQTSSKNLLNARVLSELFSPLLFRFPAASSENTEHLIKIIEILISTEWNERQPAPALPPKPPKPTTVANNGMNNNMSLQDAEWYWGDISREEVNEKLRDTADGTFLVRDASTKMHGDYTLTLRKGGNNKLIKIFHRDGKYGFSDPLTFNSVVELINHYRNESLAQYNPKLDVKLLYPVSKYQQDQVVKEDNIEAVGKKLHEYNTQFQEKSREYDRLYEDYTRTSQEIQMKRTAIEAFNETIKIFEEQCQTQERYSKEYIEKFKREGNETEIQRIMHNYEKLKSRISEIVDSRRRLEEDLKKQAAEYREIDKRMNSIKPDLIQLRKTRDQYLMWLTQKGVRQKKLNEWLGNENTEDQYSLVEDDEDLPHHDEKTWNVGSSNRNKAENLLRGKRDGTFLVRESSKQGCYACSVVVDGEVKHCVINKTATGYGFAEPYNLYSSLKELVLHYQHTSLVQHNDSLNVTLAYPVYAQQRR
Procedure: as §1, §2

[3] = target: p110 subunit of PI3-kinase (bovine, wild type, recombinant) (bovine) (UniProt P32871); experiment: GST fusion on glutathione-sepharose, p110 Sf9 lysate, bound PI3-kinase activity
[4] = target: T3, PI3-kinase p85α/p110 complex (wild type p110, recombinant, expressed in Sf9 cells), protein-serine kinase activity (Bos taurus, UniProt P32871); experiment: in vitro protein-serine kinase assay (phosphorylation of p85α) on anti-p110 immunoprecipitates of p85α/p110; assay type: biochemical, bovine; details: DTT alone, final concentration 300 mM; FIG. 17 B lane 2
T3 construct: made in house; host or cells: Sf9 insect cells (baculovirus co-infection)
T3 sequence (P32871 whole entry): as the sequence (P32871 whole entry) above
T3 sequence (P23727 whole entry partner): as the sequence (P23727 whole entry partner) above
Procedure: Anti-p110 immunoprecipitates of p85α/p110 were used to study the kinetics of phosphorylation. The Km (ATP) for the phosphorylation of p85α was measured as approximately 4 μM. The stoichiometry of phosphorylation of p85α was then measured in the presence of excess ATP (50 μM). Approximately 0.9 mol of phosphate was incorporated into one mol of p85α protein.
A further experiment to determine in vitro kinase activity with treatment of Nbs2 and DTT was also conducted. Lysates of Sf9 cells that had been coinfected with p85α/p110 baculoviruses were also treated as follows: the lysates were immunoprecipitated with anti-p110 antibodies and treated as follows: untreated (see FIG. 17, B, lane 1); 300 mM DTT (lane 2); 0.3 mM Nbs2 (lane 3); pretreated with 0.3 mM Nbs2 and then incubated with 3 mM DTT, 30 mM DTT, 300 mM DTT (lanes 4, 5, 6 respectively). Samples were then subjected to in vitro kinase assays and analysis by SDS-PAGE was conducted. Phosphorylated proteins were visualized by autoradiography.
The p110 protein was immunoprecipitated from insect cells, and equal amounts of each GST fusion protein or the GST protein alone, were mixed with p110 and the proteins were allowed to phosphorylate in vitro. […] Phosphorylated proteins were analyzed by SDS-PAGE and autoradiography.

[5] = target: p85α subunit of PI3-kinase (bovine, full length, recombinant) (bovine) (UniProt P23727)
[6] = target: p85β subunit of PI3-kinase (bovine, full length, recombinant) (bovine, UniProt P23726); experiment: GST-p110 fusion pull-down from Sf9 lysate expressing p85β
[7] = target: p85α subunit of PI3-kinase (bovine, full length, recombinant) (bovine, UniProt P23727); experiment: GST-p110 fusion pull-down from Sf9 lysate expressing p85α
[8] = target: p110 subunit of PI3-kinase (bovine, wild type, recombinant) (bovine, UniProt P32871); experiment: GST fusion on glutathione-sepharose, p110 Sf9 lysate, bound PI3-kinase activity
Procedure: GST fusion proteins of the various subdomains of p85α were constructed and immobilized on glutathione-sepharose beads, See FIG. 2, A. These proteins were used for affinity analysis with cell lysates prepared from Sf9 cells infected with a recombinant baculovirus expressing p110. The complexes were washed and subjected to PI3-kinase activity. GST alone, and GST p85α bound to glutathione-sepharose beads incubated with wild-type lysate were used as controls.

O=C(O)c1cc(SSc2ccc([N+](=O)[O-])c(C(=O)O)c2)ccc1[N+](=O)[O-] [Nbs2, 5,5'-Dithio-bis [2-nitrobenzoic acid]]
inhibition at 300 µM ([1]; 0.25 h, 0.3 mM Nbs2, 15 minutes at 22° C, FIG. 17 A lane 9, read-out: loss of PI3-kinase activity): ~95%
inhibition at 300 µM ([2]; 0.25 h, 0.3 mM Nbs2, 15 minutes at 22° C, FIG. 17 A lane 3, read-out: loss of PI3-kinase activity): ~95%

GST-85βΔ445-469 (from UniProt P23726)
percent of the PI3-kinase activity bound as compared to wild type GSTp85β [3]: 65%

O[C@H](CS)[C@H](O)CS (racemic) [DTT, dithiothreitol]
activation of protein serine kinase activity [4]: slight activation
activation of PI3-kinase activity ([1]; DTT alone, final concentration 300 mM, FIG. 17 A lane 8): slight activation
activation of PI3-kinase activity ([2]; DTT alone, final concentration 300 mM, FIG. 17 A lane 2): slight activation

p110 subunit of PI3-kinase (bovine, wild type, recombinant) (from UniProt P32871) (enzyme)
stoichiometry of phosphorylation of p85α, in vitro protein kinase assay (mol of phosphate per mol of p85α) [5]: 0.9

GST-85βΔ486-516 (from UniProt P23726)
percent of the PI3-kinase activity bound as compared to wild type GSTp85β [3]: 65%

B1: GST-p110 fusion protein p110-4 (amino acids 601-960) (other)
chain: LLDCNYPDPMVRGFAVRCLEKYLTDDKLSQYLIQLVQVLKYEQYLDNLLVRFLLKKALTNQRIGHFFFWHLKSEMHNKTVSQRFGLLLESYCRACGMYLKHLNRQVEAMEKLINLTDILKQEKKDETQKVQMKFLVEQMRRPDFMDALQGFLSPLNPAHQLGNLRLEECRIMSSAKRPLWLNWENPDIMSELLFQNNEIIFKNGDDLRQDMLTLQIIRIMENIWQNQGLDLRMLPYGCLSIGDCVGLIEVVRNSHTIMQIQCKGGLKGALQFNSHTLHQWLKDKNKGEIYDAAIDLFTRSCAGYCVATFILGIGDRHNSNIMVKDDGQLFHIDFGHFLDHKKKKFGYKRERVPFVLTQDF
binding result [6]: no binding
binding result [7]: no binding

B2: GST-p110 fusion protein p110-1.2 (amino acids 1-81) (other)
chain: MPPRPSSGELWGIHLMPPRILVECLLPNGMIVTLECLREATLITIKHELFKEARKYPLHQLLQDESSYIFVSVTQEAEREE
binding result [6]: no binding
binding result [7]: no binding

B3: GST-p110 fusion protein p110-1.7 (amino acids 37-128) (other)
chain: LREATLITIKHELFKEARKYPLHQLLQDESSYIFVSVTQEAEREEFFDETRRLCDLRLFQPFLKVIEPVGNREEKILNREIGFAIGMPVCEF
binding result [6]: no binding
binding result [7]: no binding

B4: GST-p110 fusion protein p110-1.4 (amino acids 20-81) (other)
chain: ILVECLLPNGMIVTLECLREATLITIKHELFKEARKYPLHQLLQDESSYIFVSVTQEAEREE
binding result [6]: no binding
binding result [7]: no binding

B5: GST-p110 fusion protein p110-5 (amino acids 760-960) (other)
chain: QLGNLRLEECRIMSSAKRPLWLNWENPDIMSELLFQNNEIIFKNGDDLRQDMLTLQIIRIMENIWQNQGLDLRMLPYGCLSIGDCVGLIEVVRNSHTIMQIQCKGGLKGALQFNSHTLHQWLKDKNKGEIYDAAIDLFTRSCAGYCVATFILGIGDRHNSNIMVKDDGQLFHIDFGHFLDHKKKKFGYKRERVPFVLTQDF
binding result [6]: no binding
binding result [7]: no binding

B6: GST-p110 fusion protein p110-6 (amino acids 760-1069) (other)
chain: QLGNLRLEECRIMSSAKRPLWLNWENPDIMSELLFQNNEIIFKNGDDLRQDMLTLQIIRIMENIWQNQGLDLRMLPYGCLSIGDCVGLIEVVRNSHTIMQIQCKGGLKGALQFNSHTLHQWLKDKNKGEIYDAAIDLFTRSCAGYCVATFILGIGDRHNSNIMVKDDGQLFHIDFGHFLDHKKKKFGYKRERVPFVLTQDFLIVISKGAQECTKTREFERFQEMCYKAYLAIRQHANLFINLFSMMLGSGMPELQSFDDIAYIRKTLALDKTEQEALEYFMKQMNDAHHGGWTTKMDWIFHTIKQHALN
binding result [6]: no binding
binding result [7]: no binding

B7: GSTp85β(486-724) (other)
chain: IFEEQGQTQEKCSKEYLERFRREGNEKEMQRILLNSERLKSRIAEIHESRTKLEQELRAQASDNREIDKRMNSLKPDLMQLRKIRDQYLVWLTQKGARQKKINEWLGIKNETEDQYSLMEDEDDLPHHEERTWYVGKINRTQAEEMLSGKRDGTFLIRESSQRGCYACSVVVDGDTKHCVIYRTATGFGFAEPYNLYGSLKELVLHYQHASLVQHNDALTVTLAHPVRAPGPGPPPAAR
binding result [8]: no binding

B8: GST fusion of the SH3 domain of p85α (amino acids 1-86) (other)
chain: MSAEGYQYRALYDYKKEREEDIDLHLGDILTVNKGSLVALGFSDGQEAKPEEIGWLNGYNETTGERGDFPGTYVEYIGRKKISPPT
binding result [8]: no binding

B9: GST-p110 fusion protein p110-3 (amino acids 577-1068) (other)
chain: RDEVAQMYCLVKDWPPIKPEQAMELLDCNYPDPMVRGFAVRCLEKYLTDDKLSQYLIQLVQVLKYEQYLDNLLVRFLLKKALTNQRIGHFFFWHLKSEMHNKTVSQRFGLLLESYCRACGMYLKHLNRQVEAMEKLINLTDILKQEKKDETQKVQMKFLVEQMRRPDFMDALQGFLSPLNPAHQLGNLRLEECRIMSSAKRPLWLNWENPDIMSELLFQNNEIIFKNGDDLRQDMLTLQIIRIMENIWQNQGLDLRMLPYGCLSIGDCVGLIEVVRNSHTIMQIQCKGGLKGALQFNSHTLHQWLKDKNKGEIYDAAIDLFTRSCAGYCVATFILGIGDRHNSNIMVKDDGQLFHIDFGHFLDHKKKKFGYKRERVPFVLTQDFLIVISKGAQECTKTREFERFQEMCYKAYLAIRQHANLFINLFSMMLGSGMPELQSFDDIAYIRKTLALDKTEQEALEYFMKQMNDAHHGGWTTKMDWIFHTIKQHALN
binding result [6]: no binding
binding result [7]: no binding

B10: GSTp85β(516-724) (other)
chain: RILLNSERLKSRIAEIHESRTKLEQELRAQASDNREIDKRMNSLKPDLMQLRKIRDQYLVWLTQKGARQKKINEWLGIKNETEDQYSLMEDEDDLPHHEERTWYVGKINRTQAEEMLSGKRDGTFLIRESSQRGCYACSVVVDGDTKHCVIYRTATGFGFAEPYNLYGSLKELVLHYQHASLVQHNDALTVTLAHPVRAPGPGPPPAAR
binding result [8]: no binding

B11: GST fusion of the BCR homology region of p85α (amino acids 125-322) (other)
chain: PDVAPPLLIKLVEAIEKKGLECSTLYRTQSSSNPAELRQLLDCDTASLDLEMFDVHVLADAFKRYLLDLPNPVIPVAVSSELISLAPEVQSSEEYIQLLKKLIRSPSIPHQYWLTLQYLLKHFFKLSQTSSKNLLNARVLSELFSPLLFRFPAASSENTEHLIKIIEILISTEWNERQPAPALPPKPPKPTTVANNGM
binding result [8]: no binding

MPPRPSSGELWGIHLMPPRILVECLLPNGMIVTLE (other) [GST-p110 fusion protein p110-1.6 (amino acids 1-35)]
binding result [6]: no binding
binding result [7]: no binding

MPPRPSSGELWGIHLMPPRILVECLLPNGMIVTLECLREATLITIKHEL (other) [GST-p110 fusion protein p110-1.1 (amino acids 1-49)]
binding result [6]: no binding
binding result [7]: no binding
